Laboratory results as given in article PMC11928938.

Columns and labels:
Test in all cases: SEC; size-exclusion chromatography on Superdex 200 of purified recombinant hGlyRS; dimer and monomer forms fractionated; dimer to monomers
[1] = target: human glycyl-tRNA synthetase H418R variant (hGlyRS-H418R), recombinant (human)
[2] = target: human glycyl-tRNA synthetase, wild type (hGlyRS-WT), recombinant (human)
[3] = target: human glycyl-tRNA synthetase S211F variant (hGlyRS-S211F), recombinant (human)

Substance: human glycyl-tRNA synthetase H418R variant (hGlyRS-H418R), recombinant (enzyme)
- dimer:monomer (D:M) ratio, dimer part (dimer parts against 3.0 monomer parts) [1]: 7
- stoichiometry N [1]: 2

Substance: human glycyl-tRNA synthetase, wild type (hGlyRS-WT), recombinant (enzyme)
- dimer:monomer (D:M) ratio, dimer part (dimer parts against 0.9 monomer parts) [2]: 9.1
- stoichiometry N [2]: 2

Substance: human glycyl-tRNA synthetase S211F variant (hGlyRS-S211F), recombinant (enzyme)
- dimer:monomer (D:M) ratio, dimer part (dimer parts against 6.2 monomer parts) [3]: 3.8
